Test results reported in paper PMC9900795 (bioRxiv, 2023).

Columns and labels:
Assay in all cases: pull-down
[1] = target: FL-Ndel1^PM, full-length Ndel1 with the five sites phosphorylated by CDK5 mutated to aspartic acid (UniProt Q9GZM8)
[2] = target: Ndel1^ΔCTCC, Ndel1 with the C-terminal coiled-coil containing the purported heavy chain-binding site deleted (UniProt Q9GZM8)
[3] = target: NT-Ndel1, truncation of Ndel1 containing only the N-terminal coiled-coil (UniProt Q9GZM8)
Lis1 = target: T1, Lis1 (UniProt P43034 1-410)
T1 sequence: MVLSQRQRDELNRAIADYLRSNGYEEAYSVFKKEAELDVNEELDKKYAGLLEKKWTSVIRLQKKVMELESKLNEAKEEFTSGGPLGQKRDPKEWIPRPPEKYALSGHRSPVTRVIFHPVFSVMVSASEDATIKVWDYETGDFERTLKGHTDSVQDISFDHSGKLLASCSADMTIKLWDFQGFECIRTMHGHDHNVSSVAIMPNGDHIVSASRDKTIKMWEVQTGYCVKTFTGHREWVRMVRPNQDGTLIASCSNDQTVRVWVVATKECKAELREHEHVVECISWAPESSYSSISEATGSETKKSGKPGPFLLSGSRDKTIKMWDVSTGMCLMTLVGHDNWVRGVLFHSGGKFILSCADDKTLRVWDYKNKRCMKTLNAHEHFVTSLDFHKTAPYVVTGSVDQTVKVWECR

[4] = target: FL-Ndel1^PM, full-length Ndel1 with the five sites phosphorylated by CDK5 mutated to aspartic acid (UniProt Q9GZM8); remark: listed apart in the source

Q: “SNAP-tagged, recombinant full-length human dynein with all associated accessory chains (from UniProt Q14204;O43237;P63172;Q9NP97;P63167) (complex)” was tested. Which fold higher affinity than FL-Ndel1 [1] did it give?
A: 2 fold

Q: And the Kd [2]?
A: 55 nM

Q: What about the Kd [3] of the same molecule?
A: 79 nM

B1: full-length Ndel1 (FL-Ndel1), HaloTag at the N-terminus and 6X-His tag at the C-terminus (natural protein)
chain: MDGEDIPDFSSLKEETAYWKELSLKYKQSFQEARDELVEFQEGSRELEAELEAQLVQAEQRNRDLQADNQRLKYEVEALKEKLEHQYAQSYKQVSVLEDDLSQTRAIKEQLHKYVRELEQANDDLERAKRATIVSLEDFEQRLNQAIERNAFLESELDEKESLLVSVQRLKDEARDLRQELAVRERQQEVTRKSAPSSPTLDCEKMDSAVQASLSLPATPVGKGTENTFPSPKAIPNGFGTSPLTPSARISALNIVGDLLRKVGALESKLAACRNFAKDQASRKSYISGNVNCGVLNGNGTKFSRSGHTSFFDKGAVNGFDPAPPPPGLGSSRPSSAPGMLPLSV
Q: With B1 as the molecule, how does the Kd (Lis1) read?
A: ~4 nM

B2: Lis1 (natural protein)
chain: MVLSQRQRDELNRAIADYLRSNGYEEAYSVFKKEAELDVNEELDKKYAGLLEKKWTSVIRLQKKVMELESKLNEAKEEFTSGGPLGQKRDPKEWIPRPPEKYALSGHRSPVTRVIFHPVFSVMVSASEDATIKVWDYETGDFERTLKGHTDSVQDISFDHSGKLLASCSADMTIKLWDFQGFECIRTMHGHDHNVSSVAIMPNGDHIVSASRDKTIKMWEVQTGYCVKTFTGHREWVRMVRPNQDGTLIASCSNDQTVRVWVVATKECKAELREHEHVVECISWAPESSYSSISEATGSETKKSGKPGPFLLSGSRDKTIKMWDVSTGMCLMTLVGHDNWVRGVLFHSGGKFILSCADDKTLRVWDYKNKRCMKTLNAHEHFVTSLDFHKTAPYVVTGSVDQTVKVWECR
Q: How did the Kd [4] turn out when B2 was run?
A: 4 nM

B3: NT-Ndel1, truncation of Ndel1 containing only the N-terminal coiled-coil (domain or fragment)
chain: MDGEDIPDFSSLKEETAYWKELSLKYKQSFQEARDELVEFQEGSRELEAELEAQLVQAEQRNRDLQADNQRLKYEVEALKEKLEHQYAQSYKQVSVLEDDLSQTRAIKEQLHKYVRELEQANDDLERAKRATIVSLEDFEQRLNQAIERNAFLESELDEKESLLVSVQRLKDEARDLRQELAVRERQQEVTR
Q: For B3, which Kd (Lis1) is on record?
A: ~1.2 nM
